Data on 13 molecules can be found in patent publication US20190225650A1, “PEPTIDOMIMETIC MACROCYCLES AND USE THEREOF IN REGULATING HIF1ALPHA” (AILERON THERAPEUTICS, INC., priority 2013, published 2019).

Bridge positions count the residues as written; N and C are the ends. Square brackets hold non-standard residues; d marks the D form. S5 = C=CCCC[C@](C)(N)C(=O)O; Nle = CCCC[C@H](N)C(=O)O

This experiment addresses T1, His6-tagged p300 (AA 323-423) (UniProt Q09472 323-423).
T1 construct: range 323-423; also called p300-CH; not shown: His6 tag
Nature of the experiment: TR-FRET HIF1a/p300 displacement; grade = IC50 >700 nM. On the procedure: The ability of peptides to displace HIF1α c-terminal trans-activation domain from p300-CH was measured by a TR FRET assay. […] The complex was diluted to 300 nM final in complete assay media and competitor peptides were added. The complete assay media contained 150 mM NaCl (Sigma +S5150 or equivalent), 20 mM HEPES pH 7.4 (Boston Bioproducts, Ashland, Mass.; #BB-2076), 7.5 mM CHAPS (Thermo #28300 or equivalent), and 1 mM DTT. Protein and peptide were incubated at room temperature for 1 hour before the addition of anti-Flag-K and anti-6×HIS-D2 (CisBio, Bedford Mass.) HTRF reconstitution buffer (50 mM Phosphate pH 7, 0.8 Potassium Flouride, BSA 0.2%)¹ to a final concentration of 0.5 μM and 4 nM respectively. The reaction continued for an additional two hours at room temperature. The reaction was read on a TECAN F500 plate reader with settings recommended by CisBio. The ratio of donor to acceptor fluorescence was calculated. The resulting data was analyzed with Graphpad Prism 5.0. IC50 values were calculated for both proteins using the One Site Fit-LogIC50 equation and presented in the column “IC₅₀ (nM) (HIF1α_p300 Displacement+CHAPS)” of Table 6. ¹ Cisbio USA, Bedford, Mass.; 61HISDLB (lot 007A), 61FG2KLB (024A), HTRF Buffer (62RB3RDF)
For orientation: In TR-FRET formats the signal depends on donor and acceptor labels being close together.

T1 sequence (Q09472 323-423 limits assumed): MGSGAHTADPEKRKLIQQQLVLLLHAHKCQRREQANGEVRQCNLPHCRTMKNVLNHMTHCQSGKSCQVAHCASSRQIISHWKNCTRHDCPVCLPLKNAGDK

B1: SP-14 (peptide)
peptide: Ac-FIDEEAL[Nle][S5]LVI[S5][Nle]ALDRI-NH2
modifications: staple 9-13
SMILES: CCCC[C@H](NC(=O)[C@H](CC(C)C)NC(=O)[C@H](C)NC(=O)[C@H](CCC(=O)O)NC(=O)[C@H](CCC(=O)O)NC(=O)[C@H](CC(=O)O)NC(=O)[C@@H](NC(=O)[C@H](Cc1ccccc1)NC(C)=O)[C@@H](C)CC)C(=O)N[C@@]1(C)CCCC=CCCC[C@@](C)(C(=O)N[C@@H](CCCC)C(=O)N[C@@H](C)C(=O)N[C@@H](CC(C)C)C(=O)N[C@@H](CC(=O)O)C(=O)N[C@@H](CCCNC(=N)N)C(=O)N[C@H](C(N)=O)[C@@H](C)CC)NC(=O)[C@H]([C@@H](C)CC)NC(=O)[C@H](C(C)C)NC(=O)[C@H](CC(C)C)NC1=O
As for B1, the IC50 was above 700 nM.

B2: SP-30 (peptide)
peptide: Ac-EIDEEVL[Nle][S5]LVI[S5][Nle]ALDRI-NH2
modifications: staple 9-13
SMILES: CCCC[C@H](NC(=O)[C@H](CC(C)C)NC(=O)[C@@H](NC(=O)[C@H](CCC(=O)O)NC(=O)[C@H](CCC(=O)O)NC(=O)[C@H](CC(=O)O)NC(=O)[C@@H](NC(=O)[C@H](CCC(=O)O)NC(C)=O)[C@@H](C)CC)C(C)C)C(=O)N[C@@]1(C)CCCC=CCCC[C@@](C)(C(=O)N[C@@H](CCCC)C(=O)N[C@@H](C)C(=O)N[C@@H](CC(C)C)C(=O)N[C@@H](CC(=O)O)C(=O)N[C@@H](CCCNC(=N)N)C(=O)N[C@H](C(N)=O)[C@@H](C)CC)NC(=O)[C@H]([C@@H](C)CC)NC(=O)[C@H](C(C)C)NC(=O)[C@H](CC(C)C)NC1=O
With B2, the IC50 is above 700 nM.

B3: SP-36 (peptide)
peptide: Ac-FIDEEVL[Nle][S5]LEI[S5][Nle]ALDRI-NH2
modifications: staple 9-13
SMILES: CCCC[C@H](NC(=O)[C@H](CC(C)C)NC(=O)[C@@H](NC(=O)[C@H](CCC(=O)O)NC(=O)[C@H](CCC(=O)O)NC(=O)[C@H](CC(=O)O)NC(=O)[C@@H](NC(=O)[C@H](Cc1ccccc1)NC(C)=O)[C@@H](C)CC)C(C)C)C(=O)N[C@@]1(C)CCCC=CCCC[C@@](C)(C(=O)N[C@@H](CCCC)C(=O)N[C@@H](C)C(=O)N[C@@H](CC(C)C)C(=O)N[C@@H](CC(=O)O)C(=O)N[C@@H](CCCNC(=N)N)C(=O)N[C@H](C(N)=O)[C@@H](C)CC)NC(=O)[C@H]([C@@H](C)CC)NC(=O)[C@H](CCC(=O)O)NC(=O)[C@H](CC(C)C)NC1=O
In turn, B3 displayed an IC50 above 700 nM.
As for FIDEEVLLALVIAAALDRI (not fully specified; Ac-FIDEEVL-Nle-$-LVI-$-AALDRI-NH2) [SP-20], the IC50 is above 700 nM.
Regarding FIDEEVLLALVIALALARI (not fully specified; Ac-FIDEEVL-Nle-$-LVI-$-Nle-ALARI-NH2) [SP-23], the concentration for half-maximal inhibition (IC50) was above 700 nM.

B4: SP-35 (peptide)
peptide: Ac-FIDEEVL[Nle][S5]DVI[S5][Nle]ALDRI-NH2
modifications: staple 9-13
SMILES: CCCC[C@H](NC(=O)[C@H](CC(C)C)NC(=O)[C@@H](NC(=O)[C@H](CCC(=O)O)NC(=O)[C@H](CCC(=O)O)NC(=O)[C@H](CC(=O)O)NC(=O)[C@@H](NC(=O)[C@H](Cc1ccccc1)NC(C)=O)[C@@H](C)CC)C(C)C)C(=O)N[C@@]1(C)CCCC=CCCC[C@@](C)(C(=O)N[C@@H](CCCC)C(=O)N[C@@H](C)C(=O)N[C@@H](CC(C)C)C(=O)N[C@@H](CC(=O)O)C(=O)N[C@@H](CCCNC(=N)N)C(=O)N[C@H](C(N)=O)[C@@H](C)CC)NC(=O)[C@H]([C@@H](C)CC)NC(=O)[C@H](C(C)C)NC(=O)[C@H](CC(=O)O)NC1=O
Regarding B4, the IC50 was above 700 nM.

B5: SP-31 (peptide)
peptide: Ac-FEDEEVL[Nle][S5]LVI[S5][Nle]ALDRI-NH2
modifications: staple 9-13
SMILES: CCCC[C@H](NC(=O)[C@H](CC(C)C)NC(=O)[C@@H](NC(=O)[C@H](CCC(=O)O)NC(=O)[C@H](CCC(=O)O)NC(=O)[C@H](CC(=O)O)NC(=O)[C@H](CCC(=O)O)NC(=O)[C@H](Cc1ccccc1)NC(C)=O)C(C)C)C(=O)N[C@@]1(C)CCCC=CCCC[C@@](C)(C(=O)N[C@@H](CCCC)C(=O)N[C@@H](C)C(=O)N[C@@H](CC(C)C)C(=O)N[C@@H](CC(=O)O)C(=O)N[C@@H](CCCNC(=N)N)C(=O)N[C@H](C(N)=O)[C@@H](C)CC)NC(=O)[C@H]([C@@H](C)CC)NC(=O)[C@H](C(C)C)NC(=O)[C@H](CC(C)C)NC1=O
Molecule B5 came in with a concentration for half-maximal inhibition (IC50) above 700 nM.

B6: SP-26 (peptide)
peptide: Ac-FIDEEVLA[S5]LVI[S5]AALDRI-NH2
modifications: staple 9-13
SMILES: CC[C@H](C)[C@H](NC(=O)[C@H](CCCNC(=N)N)NC(=O)[C@H](CC(=O)O)NC(=O)[C@H](CC(C)C)NC(=O)[C@H](C)NC(=O)[C@H](C)NC(=O)[C@]1(C)CCCC=CCCC[C@](C)(NC(=O)[C@H](C)NC(=O)[C@H](CC(C)C)NC(=O)[C@@H](NC(=O)[C@H](CCC(=O)O)NC(=O)[C@H](CCC(=O)O)NC(=O)[C@H](CC(=O)O)NC(=O)[C@@H](NC(=O)[C@H](Cc2ccccc2)NC(C)=O)[C@@H](C)CC)C(C)C)C(=O)N[C@@H](CC(C)C)C(=O)N[C@@H](C(C)C)C(=O)N[C@@H]([C@@H](C)CC)C(=O)N1)C(N)=O
B6 yielded an IC50 above 700 nM.

B7: SP-16 (peptide)
peptide: Ac-FIDEEVLA[S5]LVI[S5][Nle]ALDRI-NH2
modifications: staple 9-13
SMILES: CCCC[C@H](NC(=O)[C@]1(C)CCCC=CCCC[C@](C)(NC(=O)[C@H](C)NC(=O)[C@H](CC(C)C)NC(=O)[C@@H](NC(=O)[C@H](CCC(=O)O)NC(=O)[C@H](CCC(=O)O)NC(=O)[C@H](CC(=O)O)NC(=O)[C@@H](NC(=O)[C@H](Cc2ccccc2)NC(C)=O)[C@@H](C)CC)C(C)C)C(=O)N[C@@H](CC(C)C)C(=O)N[C@@H](C(C)C)C(=O)N[C@@H]([C@@H](C)CC)C(=O)N1)C(=O)N[C@@H](C)C(=O)N[C@@H](CC(C)C)C(=O)N[C@@H](CC(=O)O)C(=O)N[C@@H](CCCNC(=N)N)C(=O)N[C@H](C(N)=O)[C@@H](C)CC
Regarding B7, the half-inhibitory concentration (IC50) is above 700 nM.

B8: SP-34 (peptide)
peptide: Ac-FIDEEVLD[S5]LVI[S5][Nle]ALDRI-NH2
modifications: staple 9-13
SMILES: CCCC[C@H](NC(=O)[C@]1(C)CCCC=CCCC[C@](C)(NC(=O)[C@H](CC(=O)O)NC(=O)[C@H](CC(C)C)NC(=O)[C@@H](NC(=O)[C@H](CCC(=O)O)NC(=O)[C@H](CCC(=O)O)NC(=O)[C@H](CC(=O)O)NC(=O)[C@@H](NC(=O)[C@H](Cc2ccccc2)NC(C)=O)[C@@H](C)CC)C(C)C)C(=O)N[C@@H](CC(C)C)C(=O)N[C@@H](C(C)C)C(=O)N[C@@H]([C@@H](C)CC)C(=O)N1)C(=O)N[C@@H](C)C(=O)N[C@@H](CC(C)C)C(=O)N[C@@H](CC(=O)O)C(=O)N[C@@H](CCCNC(=N)N)C(=O)N[C@H](C(N)=O)[C@@H](C)CC
Molecule B8 had an IC50 above 700 nM.

B9: SP-15 (peptide)
peptide: Ac-FIDEEVA[Nle][S5]LVI[S5][Nle]ALDRI-NH2
modifications: staple 9-13
SMILES: CCCC[C@H](NC(=O)[C@H](C)NC(=O)[C@@H](NC(=O)[C@H](CCC(=O)O)NC(=O)[C@H](CCC(=O)O)NC(=O)[C@H](CC(=O)O)NC(=O)[C@@H](NC(=O)[C@H](Cc1ccccc1)NC(C)=O)[C@@H](C)CC)C(C)C)C(=O)N[C@@]1(C)CCCC=CCCC[C@@](C)(C(=O)N[C@@H](CCCC)C(=O)N[C@@H](C)C(=O)N[C@@H](CC(C)C)C(=O)N[C@@H](CC(=O)O)C(=O)N[C@@H](CCCNC(=N)N)C(=O)N[C@H](C(N)=O)[C@@H](C)CC)NC(=O)[C@H]([C@@H](C)CC)NC(=O)[C@H](C(C)C)NC(=O)[C@H](CC(C)C)NC1=O
Consider B9, for which the IC50 was above 700 nM.

B10: SP-33 (peptide)
peptide: Ac-FIDEEVE[Nle][S5]LVI[S5][Nle]ALDRI-NH2
modifications: staple 9-13
SMILES: CCCC[C@H](NC(=O)[C@H](CCC(=O)O)NC(=O)[C@@H](NC(=O)[C@H](CCC(=O)O)NC(=O)[C@H](CCC(=O)O)NC(=O)[C@H](CC(=O)O)NC(=O)[C@@H](NC(=O)[C@H](Cc1ccccc1)NC(C)=O)[C@@H](C)CC)C(C)C)C(=O)N[C@@]1(C)CCCC=CCCC[C@@](C)(C(=O)N[C@@H](CCCC)C(=O)N[C@@H](C)C(=O)N[C@@H](CC(C)C)C(=O)N[C@@H](CC(=O)O)C(=O)N[C@@H](CCCNC(=N)N)C(=O)N[C@H](C(N)=O)[C@@H](C)CC)NC(=O)[C@H]([C@@H](C)CC)NC(=O)[C@H](C(C)C)NC(=O)[C@H](CC(C)C)NC1=O
Molecule B10 came in with an IC50 above 700 nM.

B11: SP-32 (peptide)
peptide: Ac-FIDEEDL[Nle][S5]LVI[S5][Nle]ALDRI-NH2
modifications: staple 9-13
SMILES: CCCC[C@H](NC(=O)[C@H](CC(C)C)NC(=O)[C@H](CC(=O)O)NC(=O)[C@H](CCC(=O)O)NC(=O)[C@H](CCC(=O)O)NC(=O)[C@H](CC(=O)O)NC(=O)[C@@H](NC(=O)[C@H](Cc1ccccc1)NC(C)=O)[C@@H](C)CC)C(=O)N[C@@]1(C)CCCC=CCCC[C@@](C)(C(=O)N[C@@H](CCCC)C(=O)N[C@@H](C)C(=O)N[C@@H](CC(C)C)C(=O)N[C@@H](CC(=O)O)C(=O)N[C@@H](CCCNC(=N)N)C(=O)N[C@H](C(N)=O)[C@@H](C)CC)NC(=O)[C@H]([C@@H](C)CC)NC(=O)[C@H](C(C)C)NC(=O)[C@H](CC(C)C)NC1=O
With B11, the half-inhibitory concentration (IC50) was above 700 nM.

For orientation: IC50 means the concentration that gives 50% inhibition.
